Laboratory results from the supplement of paper PMC6757056.
± gives the standard deviation of the averaged measurements.

B1: library; a variant is named by its letters at N, in order (parent)
chain: GCUGUCACCGAGAAACUGUGAAGUAUAUCUUAAACCUGGGCACUUAAAAGAUAUAUGGAGUUAGUAGUGCAACCUGCUCGGUCUGAUGAGUCCNNNNNNGGACGAAACAGC

What was measured:
[1] = variants of: B1; test: FACS-Seq fitted mean relative fluorescence mCherry/BFP without ligand (log10 relative fluorescence); HEK293T; ligand: cyclic di-GMP (c-di-GMP-II aptamer); higher = higher reporter protein expression; conditions: ligand present: no
Description: (§1)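 Hammerhead (sTRSV) ribozyme switch libraries with a ligand aptamer grafted on stem I and a randomized N4-6 loop II, cloned into the 3' UTR of mCherry and transiently transfected into HEK293T cells; RNA-Seq 72 h post transfection with ligand added 1 h before transfection; RNA read count / plasmid DNA read count normalized to the non-cleaving sTRSVctl (x100), log10; sequences with >100 DNA reads. FACS-Seq: lentiviral library sorted into 6 bins after 48 h ligand, log-normal fit mean of mCherry/BFP scaled to controls. Printed sequences are partial switch sequences.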

[2] = variants of: B1; test: normalized RNA/DNA level without ligand (relative to sTRSVctl = 100) (log10 (% of sTRSVctl)); HEK293T; ligand: cyclic di-GMP (c-di-GMP-II aptamer); higher = less ribozyme self-cleavage, higher mRNA level; conditions: reporter: mCherry (pCS4076), ligand present: no
Description: as §1

[3] = variants of: B1; test: FACS-Seq fitted mean relative fluorescence mCherry/BFP with ligand (log10 relative fluorescence); HEK293T; ligand: cyclic di-GMP (c-di-GMP-II aptamer); ligand concentration (+) FACS-Seq: 1 mM; higher = higher reporter protein expression; conditions: ligand present: yes
Description: as §1

[4] = variants of: B1; test: normalized RNA/DNA level with ligand (relative to sTRSVctl = 100) (log10 (% of sTRSVctl)); HEK293T; ligand: cyclic di-GMP (c-di-GMP-II aptamer); ligand concentration (+) RNA-Seq: 1 mM; higher = less ribozyme self-cleavage, higher mRNA level; conditions: reporter: mCherry (pCS4076), ligand present: yes
Description: as §1

Row | Variant | FACS-Seq fitted mean (log10) [1] | normalized RNA/DNA level without ligand (log10) [2] | FACS-Seq fitted mean (log10) [3] | normalized RNA/DNA level with ligand (log10) [4]
1 | CACUGU | -0.215 ± 0.023 | 1.709 ± 0.017 | 0.0975 ± 0.08 | 1.83 ± 0.11
2 | GUGGUA | -0.522 ± 0.03 | 1.58 ± 0.059 | -0.23 ± 0.015 | 1.72 ± 0.08
3 | CCCUCA | -0.416 ± 0.038 | 1.58 ± 0.039 | -0.195 ± 0.06 | 1.73 ± 0.17
4 | CCUCAA | 0.0135 ± 0.11 | 1.46 ± 0.1 | 0.263 ± 0.07 | 1.67 ± 0.066
5 | GGCGAG | -0.757 ± 0.036 | 1.5556 ± 0.00075 | -0.498 ± 0.0053 | 1.68 ± 0.14
6 | UUCACU | -0.67 ± 0.15 | 1.73 ± 0.018 | -0.577 ± 0.18 | 1.85 ± 0.1
7 | GCAUCU | -1.08 ± 0.08 | 1.614 ± 0.0091 | -0.903 ± 0.025 | 1.79 ± 0.094
8 | AUCUGC | -0.0609 ± 0.046 | 1.731 ± 0.0043 | 0.176 ± 0.085 | 1.88 ± 0.14
9 | CGCUAU | -1.02 ± 0.037 | 1.41 ± 0.12 | -0.866 ± 0.11 | 1.64 ± 0.094
10 | CUUACA | -0.457 ± 0.02 | 1.55 ± 0.067 | -0.154 ± 0.088 | 1.72 ± 0.077
11 | UGUACC | 0.263 ± 0.21 | 1.79 ± 0.068 | 0.4414 ± 0.00076 | 1.9 ± 0.13
12 | AGUUAG | -0.315 ± 0.053 | 1.54 ± 0.059 | -0.0278 ± 0.059 | 1.75 ± 0.11
13 | CGAUGA | -0.364 ± 0.049 | 1.47 ± 0.059 | -0.172 ± 0.032 | 1.62 ± 0.12
14 | AACAGA | -0.897 ± 0.023 | 1.39 ± 0.14 | -0.683 ± 0.0078 | 1.59 ± 0.11
15 | AAACUU | -0.199 ± 0.0094 | 1.646 ± 0.0047 | 0.118 ± 0.0021 | 1.82 ± 0.091
